This data set can be described thus: total protein half-life in vivo (active degradation + dilution); higher = more stable protein.
Setting [1] is: E. coli NCM3722 delta-clpP, growth: N-lim chemostat, doubling time 6 h.
Where [2] appears, read: E. coli NCM3722 delta-lon, growth: N-lim chemostat, doubling time 6 h.
Where [3] appears, read: E. coli NCM3722 delta-smpB, growth: N-lim chemostat, doubling time 6 h.
Setting [4] is: wild type E. coli NCM3722, growth: C-lim chemostat, doubling time 3 h.
The mark [5] stands for this setting: wild type E. coli NCM3722, growth: N-lim chemostat, doubling time 6 h.
The mark [6] stands for this setting: wild type E. coli NCM3722, growth: P-lim chemostat, doubling time 6 h.
The mark [7] stands for this setting: wild type E. coli NCM3722, growth: P-lim chemostat, doubling time 12 h.
The mark [8] stands for this setting: E. coli NCM3722 delta-clpP delta-lon delta-hslV, growth: N-lim chemostat, doubling time 6 h.
The mark [9] stands for this setting: E. coli NCM3722 delta-hslV, growth: N-lim chemostat, doubling time 6 h.
Where [10] appears, read: wild type E. coli NCM3722, growth: C-lim chemostat, doubling time 6 h.
Setting [11] is: wild type E. coli NCM3722, growth: C-lim chemostat, doubling time 12 h.
Setting [12] is: wild type E. coli NCM3722, growth: N-lim chemostat, doubling time 12 h.

The text below walks through data of the supplement of paper PMC11246515.

± gives the standard deviation of the averaged measurements.

Consider “MALTKAEMSEYLFDKLGLSKRDAKELVELFFEEIRRALENGEQVKLSGFGNFDLRDKNQRPGRNPKTGEDIPITARRVVTFRPGQKLKSRVENASPKDE [P0A6X7]”, for which the “total protein half-life in vivo” value runs as follows: under setting [1], 6.46 ± 1 h; under setting [2], 7.06 ± 0.79 h; under setting [3], 5.2 ± 0.41 h; under setting [4], 3.249 ± 0.0028 h; under setting [5], 5.83 ± 0.23 h; under setting [6], 6.33 ± 0.39 h. The “total protein half-life in vivo” value under setting [7] was 11.7 ± 1.9 h.
For the sequence “MSKIVKIIGREIIDSRGNPTVEAEVHLEGGFVGMAAAPSGASTGSREALELRDGDKSRFLGKGVTKAVAAVNGPIAQALIGKDAKDQAGIDKIMIDLDGTENKSKFGANAILAVSLANAKAAAAAKGMPLYEHIAELNGTPGKYSMPVPMMNIINGGEHADNNVDIQEFMIQPVGAKTVKEAIRMGSEVFHHLAKVLKAKGMNTAVGDEGGYAPNLGSNAEALAVIAEAVKAAGYELGKDITLAMDCAASEFYKDGKYVLAGEGNKAFTSEEFTHFLEELTKQYPIVSIEDGLDESDWDGFAYQTKVLGDKIQLVGDDLFVTNTKILKEGIEKGIANSILIKFNQIGSLTETLAAIKMAKDAGYTAVISHRSGETEDATIADLAVGTAAGQIKTGSMSRSDRVAKYNQLIRIEEALGEKAPYNGRKEIKGQA [P0A6P9]”, the “total protein half-life in vivo” value is 5.56 ± 0.57 h under setting [8]; 5.57 ± 0.75 h under setting [1]; 4.86 ± 0.065 h under setting [9]; 4.95 ± 0.37 h under setting [2]; 4.634 ± 0.024 h under setting [3]; 3.19 ± 0.15 h under setting [4]. For the same sequence, the “total protein half-life in vivo” value came out at 5.95 ± 0.21 h under setting [10]; 12.831 ± 0.01 h under setting [11]; 5.06 ± 0.19 h under setting [5]; 8.35 ± 0.29 h under setting [12]; 5.52 ± 0.69 h under setting [6]; 11.3 ± 0.84 h under setting [7].
In the case of “MEMLEEHRCFEGWQQRWRHDSSTLNCPMTFSIFLPPPRDHTPPPVLYWLSGLTCNDENFTTKAGAQRVAAELGIVLVMPDTSPRGEKVANDDGYDLGQGAGFYLNATQPPWATHYRMYDYLRDELPALVQSQFNVSDRCAISGHSMGGHGALIMALKNPGKYTSVSAFAPIVNPCSVPWGIKAFSSYLGEDKNAWLEWDSCALMYASNAQDAIPTLIDQGDNDQFLADQLQPAVLAEAARQKAWPMTLRIQPGYDHSYYFIASFIEDHLRFHAQYLLK”, the “total protein half-life in vivo” value under setting [8] was determined as 5.79 ± 0.058 h; the “total protein half-life in vivo” value under setting [1] amounted to 5.61 ± 0.89 h; the “total protein half-life in vivo” value under setting [2] is 6.09 ± 0.43 h; the “total protein half-life in vivo” value under setting [3] was 5.19 ± 0.2 h; the “total protein half-life in vivo” value under setting [4] was determined as 3.5 ± 0.13 h; the “total protein half-life in vivo” value under setting [10] was 5.59 ± 0.15 h. Moreover, the “total protein half-life in vivo” value under setting [11] is 13 ± 2.8 h; the “total protein half-life in vivo” value under setting [5] amounted to 5.67 ± 0.38 h; the “total protein half-life in vivo” value under setting [12] is 8.798 ± 0.034 h; the “total protein half-life in vivo” value under setting [6] was 6.2 ± 0.11 h; the “total protein half-life in vivo” value under setting [7] was 11.9 ± 1.7 h.
Consider “MRSFSQLWPTLKRLLAYGSPWRKPLGIAVLMMWVAAAAEVSGPLLISYFIDNMVAKNNLPLKVVAGLAAAYVGLQLFAAGLHYAQSLLFNRAAVGVVQQLRTDVMDAALRQPLSEFDTQPVGQVISRVTNDTEVIRDLYVTVVATVLRSAALVGAMLVAMFSLDWRMALVAIMIFPVVLVVMVIYQRYSTPIVRRVRAYLADINDGFNEIINGMSVIQQFRQQARFGERMGEASRSHYMARMQTLRLDGFLLRPLLSLFSSLILCGLLMLFGFSASGTIEVGVLYAFISYLGRLNEPLIELTTQQAMLQQAVVAGERVFELMDGPRQQYGNDDRPLQSGTIEVDNVSFAYRDDNLVLKNINLSVPSRNFVALVGHTGSGKSTLASLLMGYYPLTEGEIRLDGRPLSSLSHSALRQGVAMVQQDPVVLADTFLANVTLGRDISEERVWQALETVQLAELARSMSDGIYTPLGEQGNNLSVGQKQLLALARVLVETPQILILDEATASIDSGTEQAIQHALAAVREHTTLVVIAHRLSTIVDADTILVLHRGQAVEQGTHQQLLAAQGRYWQMYQLQLAGEELAASVREEESLSA [P0AAG5]”, for which the “total protein half-life in vivo” value under setting [8] is 6.44 ± 0.43 h; the “total protein half-life in vivo” value under setting [1] stood at 6 ± 0.12 h; the “total protein half-life in vivo” value under setting [9] was 4.33 ± 0.16 h; the “total protein half-life in vivo” value under setting [2] turned out to be 3.97 ± 0.13 h; the “total protein half-life in vivo” value under setting [3] is 4.31 ± 0.43 h; the “total protein half-life in vivo” value under setting [4] came out at 2.85 h. Further, the “total protein half-life in vivo” value is, setting by setting: under setting [10], 4.47 ± 0.42 h; under setting [11], 8.8 ± 2.3 h; under setting [5], 4.589 ± 0.038 h; under setting [12], 6.71 ± 0.085 h; under setting [6], 5.09 ± 0.38 h; under setting [7], 10.3 ± 0.7 h.
As for “MTAKTAPKVTLWEFFQQLGKTFMLPVALLSFCGIMLGIGSSLSSHDVITLIPVLGNPVLQAIFTWMSKIGSFAFSFLPVMFCIAIPLGLARENKGVAAFAGFIGYAVMNLAVNFWLTNKGILPTTDAAVLKANNIQSILGIQSIDTGILGAVIAGIIVWMLHERFHNIRLPDALAFFGGTRFVPIISSLVMGLVGLVIPLVWPIFAMGISGLGHMINSAGDFGPMLFGTGERLLLPFGLHHILVALIRFTDAGGTQEVCGQTVSGALTIFQAQLSCPTTHGFSESATRFLSQGKMPAFLGGLPGAALAMYHCARPENRHKIKGLLISGLIACVVGGTTEPLEFLFLFVAPVLYVIHALLTGLGFTVMSVLGVTIGNTDGNIIDFVVFGILHGLSTKWYMVPVVAAIWFVVYYVIFRFAITRFNLKTPGRDSEVASSIEKAVAGAPGKSGYNVPAILEALGGADNIVSLDNCITRLRLSVKDMSLVNVQALKDNRAIGVVQLNQHNLQVVIGPQVQSVKDEMAGLMHTVQA”, the “total protein half-life in vivo” value runs as follows: under setting [4], 1.42 ± 0.085 h; under setting [11], 2.5 ± 0.29 h.
Take “MSYTPMSDLGQQGLFDITRTLLQQPDLASLCEALSQLVKRSALADNAAIVLWQAQTQRASYYASREKDTPIKYEDETVLAHGPVRSILSRPDTLHCSYEEFCETWPQLDAGGLYPKFGHYCLMPLAAEGHIFGGCEFIRYDDRPWSEKEFNRLQTFTQIVSVVTEQIQSRVVNNVDYELLCRERDNFRILVAITNAVLSRLDMDELVSEVAKEIHYYFDIDDISIVLRSHRKNKLNIYSTHYLDKQHPAHEQSEVDEAGTLTERVFKSKEMLLINLHERDDLAPYERMLFDTWGNQIQTLCLLPLMSGDTMLGVLKLAQCEEKVFTTTNLNLLRQIAERVAIAVDNALAYQEIHRLKERLVDENLALTEQLNNVDSEFGEIIGRSEAMYSVLKQVEMVAQSDSTVLILGETGTGKELIARAIHNLSGRNNRRMVKMNCAAMPAGLLESDLFGHERGAFTGASAQRIGRFELADKSSLFLDEVGDMPLELQPKLLRVLQEQEFERLGSNKIIQTDVRLIAATNRDLKKMVADREFRSDLYYRLNVFPIHLPPLRERPEDIPLLAKAFTFKIARRLGRNIDSIPAETLRTLSNMEWPGNVRELENVIERAVLLTRGNVLQLSLPDIVLPEPETPPAATVVALEGEDEYQLIVRVLKETNGVVAGPKGAAQRLGLKRTTLLSRMKRLGIDKSALI”: the “total protein half-life in vivo” value under setting [8] turned out to be 6.33 ± 0.39 h; the “total protein half-life in vivo” value under setting [1] amounted to 4.33 ± 0.27 h; the “total protein half-life in vivo” value under setting [9] is 3.33 ± 0.097 h; the “total protein half-life in vivo” value under setting [2] stood at 5.42 ± 0.29 h; the “total protein half-life in vivo” value under setting [3] was 3.22 ± 0.57 h; the “total protein half-life in vivo” value under setting [4] amounted to 2.4 ± 0.24 h. For the same sequence, the “total protein half-life in vivo” value worked out at 5.33 ± 1.1 h under setting [10]; 7.11 ± 0.98 h under setting [11]; 3.48 ± 0.2 h under setting [5]; 8.1 ± 4.8 h under setting [12]; 2.84 h under setting [6]; 5.132 ± 0.02 h under setting [7].
With “MNKSRQKELTRWLKQQSVISQRWLNISRLLGFVSGILIIAQAWFMARILQHMIMENIPREALLLPFTLLVLTFVLRAWVVWLRERVGYHAGQHIRFAIRRQVLDRLQQAGPAWIQGKPAGSWATLVLEQIDDMHDYYARYLPQMALAVSVPLLIVVAIFPSNWAAALILLGTAPLIPLFMALVGMGAADANRRNFLALARLSGHFLDRLRGMETLRIFGRGEAEIESIRSASEDFRQRTMEVLRLAFLSSGILEFFTSLSIALVAVYFGFSYLGELDFGHYDTGVTLAAGFLALILAPEFFQPLRDLGTFYHAKAQAVGAADSLKTFMETPLAHPQRGEAELASTDPVTIEAEELFITSPEGKTLAGPLNFTLPAGQRAVLVGRSGSGKSSLLNALSGFLSYQGSLRINGIELRDLSPESWRKHLSWVGQNPQLPAATLRDNVLLARPDASEQELQAALDNAWVSEFLPLLPQGVDTPVGDQAARLSVGQAQRVAVARALLNPCSLLLLDEPAASLDAHSEQRVMEALNAASLRQTTLMVTHQLEDLADWDVIWVMQDGRIIEQGRYAELSVAGGPFATLLAHRQEEI”, the “total protein half-life in vivo” value by setting is: under setting [1], 6.56 ± 0.17 h; under setting [9], 5.94 ± 0.14 h; under setting [2], 6.1322 ± 0.0016 h; under setting [3], 5.95 ± 0.69 h; under setting [4], 3.54 ± 0.42 h; under setting [10], 5.88 ± 0.21 h. The “total protein half-life in vivo” value under setting [5] worked out at 6.42 ± 0.35 h, the “total protein half-life in vivo” value under setting [12] was determined as 12.7 ± 1.1 h, the “total protein half-life in vivo” value under setting [6] was 6.33 ± 0.11 h and the “total protein half-life in vivo” value under setting [7] worked out at 11.8 ± 0.91 h.
